The values that follow come from US20060269977A1, “Recombinant antibody recognizing dioxin and gene encoding the antibody” (priority 2003, published 2006).

Assay type in all cases: binding
Test [1] can be described thus: Hybridoma supernatant EIA: antibody titer to immobilized 2,3,4,7,8-PeCDF derivative-BSA conjugate and its inhibition by 2,3,4,7,8-PeCDF. To be noted: titer inhibited by 2,3,4,7,8-PeCDF dissolved in 20% DMSO. The protocol: After 7 to 10 days from the onset of the cultivation, a portion of the supernatant of the culture in the wells in which proliferation of hybridomas was observed was taken and added to a microtiter plate to which the 2,3,4,7,8-PeCDF derivative-BSA conjugate was immobilized. After allowing to react at room temperature for one hour, the plate was washed with PBS(−) containing 0.05% Tween 20. A peroxidase-labeled anti-mouse IgG antibody (recognizing γ-chain) (KPL Co.) was then added to the plate and allowed to react at room temperature for one hour, and the plate was then washed in the same manner. A substrate solution (TMB substrate, KPL Co.) was added to the plate, the peroxidase activity on the plate was measured, and the antibody titer in the supernatant of the culture was determined.

Test [2] can be described thus: EIA reactivity of H-chain variable region polypeptide fractions to immobilized 2,3,4,7,8-PeCDF-BSA conjugate. The note with it: fractions eluted from nickel-chelate column; EIA on immobilized 2,3,4,7,8-PeCDF-BSA conjugate; FIG. 10. The protocol: Escherichia coli Origami B (DE3) (Novagen Co.) was transformed using expression vector pET22Δ-Dx3860H which was prepared by removing the sequence between restriction enzyme sites Bam HI and Not I containing the L-chain variable region of expression vector pET22Δ-Dx3860HL. Using the transformant, the expression of the H-chain variable region polypeptide (polypeptide having the amino acid sequence as shown in SEQ ID No. 5) was carried out in the same manner as in the case of the scFv.
The H-chain variable region polypeptide obtained as an inclusion body was reconstituted on a nickel-chelate column as described above, and the product was then isolated and purified using imidazole. Protein concentrations of the fractions eluted from the chelate column were determined by measuring absorbance (280 nm), and the reactivity to an immobilized 2,3,4,7,8-PeCDF-BSA conjugate was also investigated by an EIA method. As a result, it was recognized that the fractions of the H-chain variable region polypeptide have an anti-2,3,4,7,8-PeCDF activity as shown in FIG. 10.

Test [3] in a line: Indirect competitive immunoassay using anti-2,3,4,7,8-PeCDF scFv. The note with it: 2,3,4,7,8-PeCDF solution in 20% DMSO; immobilized 2,3,4,7,8-PeCDF derivative-BSA conjugate; FIG. 9. The protocol:
Determination of 2,3,4,7,8-PeCDF by an Indirect Competitive Immunoassay Using Anti-2,3,4,7,8-PeCDF scFv
One μg/ml of 2,3,4,7,8-PeCDF derivative-BSA conjugate (50 μl) was added to a microtiter plate, and allowed to react at room temperature for one hour. The wells of the microtiter plate were washed with PBS(−) containing 0.05% Tween 20. A solution of Block Ace (Yukijirushi Co.) was then added to the wells, and the wells were blocked by allowing them to stand at room temperature for two hours. After the microtiter plate was washed, a solution (25 μl) of 2,3,4,7,8-PeCDF prepared in various concentrations (a solution in 20% DMSO) and a solution (25 μl) of anti-2,3,4,7,8-PeCDF scFv were added to the wells, and allowed to react at room temperature for 0.5 to 1 hour. After the microtiter plate was again washed, a solution of anti-tetra-His antibody (Qiagen Co.) 2000-fold diluted was added to the wells, and allowed to react at room temperature for one hour. Subsequently, a solution (50 μl) of peroxidase-labeled anti-mouse IgG (recognizing γ-chain) antibody (KPL Co.) 3000-fold diluted was added to the wells, and allowed to react at room temperature for one hour. […] The reaction was terminated by adding 1 M H3PO4 (50 μl), and OD450 (control: OD600) was measured using a plate reader (Labsystems Co.).

Positions count from the first letter of the chain named.

B1: Dx3150: monoclonal antibody recognizing 2,3,4,7,8-PeCDF, produced by hybridoma Dx3150r1; H/L variable regions SEQ ID Nos. 7 and 8 (antibody, V domains shown)
VH: DVQLQESGPGLVKPSQSLSLTCSVTGYSITSGFYWNWIRQFPGNKLEWMGYISYDGYNNYNPFLKNRVSITRDTSENQFFLKLHSVTTEDTATYYCVSYGSRRGVTYWGQGTTLTVSS
VL: QAVVTQESALTTSPGETVTLTCRSSTGAVTTSNYANWVQEKPDHLFTGLIGNTNNRAPGVPARFSGSLIGDKAALTITGAQTEDEAIYFCALWYNTHLVFGGGTRLTVLG
modifications: Polypeptide of H-chain variable region of monoclonal antibody Dx 3150; Polypeptide of L-chain variable region of monoclonal antibody Dx 3150
As for B1, the “recognition of 2,3,4,7,8-PeCDF by monoclonal antibody” value in test [1] is “recognizing 2,3,4,7,8-PeCDF”.

B2: H-chain variable region polypeptide: H-chain variable region of Dx3860, polypeptide having the amino acid sequence of SEQ ID No. 5, from vector pET22Δ-Dx3860H (antibody, V domains shown)
VH: EVKLVESGGGLVKPGGSLKLSCAASGFTFSSYAMSWVRQTPEKRLEWVASFSNGGITYYPDSVKGRFTISRDNARNILYLQMTSLRSEDTAIYYCARGYGPAYWGQGTLVTVSA
modifications: Polypeptide of H-chain variable region of monoclonal antibody Dx 3860
Regarding B2, the “binding activity to 2,3,4,7,8-PeCDF (anti-2,3,4,7,8-PeCDF activity)” value in test [2] is “has a binding activity to 2,3,4,7,8-PeCDF”.

B3: Dx3860: monoclonal antibody recognizing 2,3,4,7,8-PeCDF, produced by hybridoma Dx3860r1; H/L variable regions SEQ ID Nos. 5 and 6 (antibody, V domains shown)
VH: B2 VH
VL: B1 VL with S32L, N95S, T96N, R105K
modifications: Polypeptide of H-chain variable region of monoclonal antibody Dx 3860; Polypeptide of L-chain variable region of monoclonal antibody Dx 3860
With B3, in test [1], the “recognition of 2,3,4,7,8-PeCDF by monoclonal antibody” value is “recognizing 2,3,4,7,8-PeCDF”.

B4: anti-2,3,4,7,8-PeCDF scFv: scFv: H-chain variable region of Dx3860, linker, L-chain variable region of Dx3860 (SEQ ID No. 56), expressed in E. coli Origami B (DE3) (protein)
scFv: EVKLVESGGGLVKPGGSLKLSCAASGFTFSSYAMSWVRQTPEKRLEWVASFSNGGITYYPDSVKGRFTISRDNARNILYLQMTSLRSEDTAIYYCARGYGPAYWGQGTLVTVSSGGGGSGGGGSGGGGSQAVVTQESALTTSPGETVTLTCRSSTGAVTTLNYANWVQEKPDHLFTGLIGNTNNRAPGVPARFSGSLIGDKAALTITGAQTEDEAIYFCALWYSNHLVFGGGTKLTVLG
modifications: scFv fragment Dx3860HL
On to B4, for which the “determination of 2,3,4,7,8-PeCDF by indirect competitive immunoassay” value in test [3] is “can be determined in a highly sensitive manner”.
